Source: the nanobody polyreactivity screen of Harvey et al. (2022)

experiment: yeast display, Sf9 membrane polyspecificity reagent, FACS + sequencing; frameworks hold sequencing errors
Procedure, shortened: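 Nanobodies from a synthetic yeast display library (Saccharomyces cerevisiae BJ5465), induced 36–48 hours with galactose, were stained 1 hour at 4 °C with 10% biotinylated, detergent-solubilized Sf9 membrane reagent, enriched on streptavidin microbeads, then FACS-sorted. Anti-HA (expression) and streptavidin (reagent binding) fluorescence set low and high (top ~1%) gates. Polyreactivity labels come from the gate of origin. Genes were colony-PCR amplified, MiSeq 2 × 250 sequenced and filtered by CDR length.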

Sequence | polyreactivity (PSR sort gate)
QVKLVESGGGLVQAGGSLRLSCADSGLIFGRNARGWYRQAPGKERELVAAISSSGVRTFYADSVKGRFTISRDNAKNTVYLQMNSLKPEDTAVYYCATRGRVYPTKYSLDEDYWGQGTQVTVSS | high polyreactivity
QVKLVESGGGLVQAGGSLRLSCADSGSIFGGNTMVWYRQAPGKEREFVAAITWGGNTYYADSVKGRFTISRDNAKNTVYLQTNSLKPEDTAVYYCAAGGRPQYWGRYYYWGQGTQVTVSS | high polyreactivity
QVKLVESGGGLVQAGGSLRLSCADSGSIFQRYAMGWYSQKPGKAREFVAAISGRGGSTYYADSVKGRFTISRDNAKNTVYLQMNSLKPEDTAVYYCAADSSRFYGRPRYYYWGQGTQVTVSS | high polyreactivity
QVKLVESGGGLVQAGGSLRLSCAPSGFTFFTYAMGWYRQAPGKERVLVAAITSGGSTNYADSVKGRFTISRDNAKNTVDLQMNSLKPEDTAVYYCAKLAYSDATTVYGYQRSDYWGQGTQVTVSS | low polyreactivity
QVKLVESGGGLVQAGGSLRLSCPASGSIFYRNTMGWYRQEPGKERELVASITSGSSTFYADSVKGRFTISRDNAKNTVYLQMNSLKAEDTAVYYCAKRRGSPGFRFRAGGAYGYWGQGTQVTVSS | low polyreactivity
QVKLVESGGGLVQAGGSLSLSCAASGRIFSYNAMGWYRQAPGKERELVAVISRSDTSTYYADSVKGRFTISRDNAKNTVYLEMNSLKPEDTAVYYCNADGPTYFRYSGYYYWGQGTQVTVSS | low polyreactivity
QVKLVESGGGLVQAGGSLSLSCAATGIIFRFYSMGCYRQAPGKERELVAVITSRSDSTYYADSVKGRFTISRDNAKNTFYLQKNSLKPEDTAVYYCNARYPWYYRYSTYDYWGQGTQVTVSS | high polyreactivity
QVKLVESGGGLVQSGGSLRLTSAASGSTFPRYAMGWYRQAPGKEREFVAVIWSGGSTYYADSVKGRLTISRDNAKNTVYLQMNSLKPEDTAVYYCAAEYHTLSLDSGYATHDYWGQGTQVTVSS | low polyreactivity
QVKLVESGGVLVQAGGSLRLSCAASAFTFRWYSMGWYRQATGKERELVARISWDGGSTYYADSVKGRFTISRDNAKNTVYVQMNSLKPEDTAVYYCAIDWYYLRRNYDYWGQGTQVTLSS | high polyreactivity
QVKLVESVGGLVQAGGSLRFSCAASANTFYYYAMGWYREAPGNDMELVASITWRVGDTYYADSVKGRFTIARDNAKNTVYLQMNSLKPEDTAVYYCAKPRLGRYDSLSYLGDYPGYDYWGQGTQVTVSS | low polyreactivity
QVKLVETGGGLVQAGGSLRLSSAASGTTFVHYDMGWYRQAPGNERELVAAISRSGASTYYADSVKGRFTISRDHAKNTVYLQMNSLKPDDTAVYYCATIKYYGRRFNYWGQGTQVTVSS | high polyreactivity
QVKRVESGGGLVQAGGSLRLSCAASGSTFYDYAMGWYRPAHGKQRELVAAINGNGDSTYYADSVKGRFTISRDNAKNTVYLQMNSLKPEDTAVYYCAAYLGWGYDYWGQGTQVTVSS | low polyreactivity
QVLLQERGGGLVQAGGSLRLSCAASGTISTDIRMGWYRLAPGKEREFVASIDGCSTTYYAYSVKGRFTISRDNAKNTVYLQMNSLKPEDTAMYYCAAREATEFYLYYWGQGTQVTVSS | low polyreactivity
QVLLQESGGGLVEAGGSLRLSCAASGTISTDIRMGWYRLAPGKEREFVASIDGGSTTYYADSVKGRFTISRDNAKNTVYLQMNSLKPQDTAMYYCAAGEATEFYLYYWGQGTQVTVSS | low polyreactivity
QVLLQESGGGLVQAGGSLRLCCAASGYISGDQYMGWYRQAPGKEREFVAGIGNGTNTNYADSVKGRFTTSRDNAKNTVYLQMNSLKPEDTAVYYCAADPSDGSTLAYWGQGTQVTVSS | high polyreactivity
QVLLQESGGGLVQAGGSLRLSCAASGNIFSAGGMGCYRQAPVNERELVAGIGTGTSTNYADSVKGRFTISRDNAKNTVYLQMNSLKPEDTAVYYCAAAYYSGLSHWYWGQGTQVTVSS | low polyreactivity
QVLLQESGGGLVQAGGSLRLSCAASGNIFTAGGMGWYRQAPVNERELVAGIGTGTSTNYADRVKGRFTISRDNAKNTVYLQMNSLKPEDTAVYYCAPAYYSGLSHWYWGQGTQVTVSS | low polyreactivity
QVLLQESGGGLVQAGGSLRLSCAASGSIFLFYTMGWYRQAPVKEREFVAGITLGTTTYNADSVKGRFTISRDNVKNTVYLQMNSLKPEDTAVYYCAVAVGHYTEFWYWGQGTQVTMSS | high polyreactivity
QVLLQESGGGLVQAGGSLRLSCASSGTISTDIRMGWYRLAPGKEREFVASIDGCSTTYYADSVKGRFSISRDNAKNTVYLQMNSLKPEDTSMYYCAAREATEFYLYYWGQGTQVTVSS | low polyreactivity
QVLLQESGGGLVQAGGSLRVSCAASGTISTDIRMGSYRLAPGKEREFVASIDGCSTTYYADSVKGRFTISRDNAKNTVYLQMNSLKPEDTAMYYCAAREATEYYLYYWGQGTQVTVSS | low polyreactivity
QVLLQESGGLVQAGCSLRMSCAASGSISTALSMGWYRQAPGKERELVSTISDGASTNYADSVKGRFTISRVNAKNTVYLQMNSLKPEDTAVYYCARYYFGNFGWGQGTQVTVSS | high polyreactivity
QVLLQESGSGLVQAGGSLRLSCAASGTISTDIRIGLYRLAPRKEREFVASIDGCSTTYYADSVKGRFTISRDNAKNSVYLQMNSLKPEVTAMYYCAAREATEFYLYYWGQGTQVTVSS | low polyreactivity

Sequence | polyreactivity (PSR sort gate)
QVLLQESVGGLVQAGGSLRLGCAASGTISPAYYMGRYQQEPGKVRQFVAAITYGTNTYYADSVKGRFTISRDNAKNTVYLQMNSLKPEDTAVYYCSATAGYNGAHDYWGQGTQVTVSS | low polyreactivity
QVLLVESGGALVQAGGSLRLSCAASGYIFRFYTLRGYRQAPGKERELVAAISAGGSTNSADSVKGRFTISRDNAKNTVYLQMNSLKPEDTAVEYCAARYYSRYYWGQGTQVTVSS | low polyreactivity
QVLLVESGGGLVQAGGSLRLSCAASGAIFRGYVMGWYSQAPGKERELVAAISYSGGATYYADSVKGRFTLSRDNAKNTVYVQMNSLKPEDTAVYYCAAYRYRYPYRLYDYWGQGTQGTVSS | high polyreactivity
QVLLVESGGGLVQAGGSLRLSCAASGRIFDDYAMGWYRQAPGKESELVAAITSGGRTYYADSVKGRFTISRDNAKNTVYLKMHSLKPDDTAVYYCAAQYGWFYEFVYWGQGTPVTVSS | high polyreactivity
QVLLVESGGGLVQAGGSLRLSCAATGSTFIRNAMGWYSQAPGKERELVAVISSGGSTYYADSVKGRFTISREIAKNTVYLQMNSLKPEDTAVYYCPAGDPQKEDYWGQGTQVTVSS | low polyreactivity
QVLLVESGGGLVQAGGSLRVSCAASGRTFGGYGMGWYRQAPGKDRELVASISFSGGAGTYYADSVKGRFTISRDNATTPVYLQMNSLKPEDTAVYYCAKRYVTPTYRRYSWGQGTQETVSS | high polyreactivity
QVNLVESGGGLVLAGGSLRLSCAASGRIYRRNTMGWYRPAPGKERELVAAITSSGGSTYADSVKGRFTISRDNAKNTVYLQMNSLKPEDTAVYYCDTYVAYHRGYRTYDHWGQGTQVTVSS | low polyreactivity
QVNLVESGGGLVLAGGSLRLSCAASGVTYGNNAMGWYRQAPGKEREFVATISRRGGSTYYADSVMGRFTISRDNAKNTVYLQMNRLKPEDTAVYYCDVDRAGIKFAAGYDYWGQGTQVTVSS | high polyreactivity
QVPHVESGGGLVQAGGSLRLSSAASGFIHKSYTMGWYRQAPGKERELVAAISRSGASKYYAYSVKGRFTISRDNAKNTVYLQMNSLKPEDTAVYYCNRRRHNIGTGEYNYWGQGTQVTVSS | high polyreactivity
QVPLVESGGGLVQAGGSLRLSCAASGFIFYANAMGWYRQAPGKERELVAAISWDGGRTYYADSVKGRFTISRDNAKNTVYLQMNSLKPDDTAVYSCNALATDLDYWGQGTQVTVSS | low polyreactivity
QVPLVESGGGLVQAGGSLRLSCAASGSIFQLYAMGWYRQAPGKEREFVAAITRSGGRTYYADSVKGRFTISRDNAKNTVYIQMNSLKPEDTAVYYCAADWVRNVYYRGYDYWGQGPQVTVSS | high polyreactivity
QVPLVESGGGLVQAGGSLRLSCAASGSIFWTYTIGWYRKAPGKERELVAAITSSGSTNFADSVKGRFTISRDNAKKTVYLQMNSLKPADTAVYYCAADPEYRGYQRYDYWGQGTQVTVSS | low polyreactivity
QVPLVESGGGLVQAGGSLRLSCAASGSTFSGYAMGWYRQAPGKERELVATITSTGSTNYADSVKGRFTISRDNAKNTVYLQMNSLKPEDTAVYYCNARYLFVERYFLHYASVRYDYWGQGTQVTVST | low polyreactivity
QVPLVESGGGLVQAGGSLRLSCAASGSTLAANAMGWYRQAPGKERELVAAIDGGGSTYYADSVKGRFTISRDNAKNTVYLQMNILKPDDTAVYYCATPYVWTITQKKYDYWGQGTQVTVSS | low polyreactivity
QVPLVESGGGLVQAGGSLRLSCDASGSTFFPNAMGWYRQAPGKEREFVAAISWSGGRTYYADSVKGRFTISRDNAKNTVYLQMNSLKPEDTAVYYCAARLYTVRYGYWGQGTQVTVSS | high polyreactivity
QVPLVESGGGLVQAGRSLRLSCAASGITFRHNTMGWYRQAPGKERELVSTNYADSVKGRFTFSRDNAKNTVYLQMNSLKPEDTAVYYCNADGTFESDYWGQGTQVTVSS | low polyreactivity
QVPLVESGRGLVQAGGSLRLSCAASGFIFKYYAMGWYRQAPGKEGELVASISSSGSSTYYADSVKGRFTISRDNAKNTVYLQMNSLKAEDTAVNYCNTVTYGPSAYDYLGQGTQVTVSS | low polyreactivity
QVPMQESGGGLVQADGRLSLSCAASGSIFGYYYMGWYRQAPGKDRELVATINICGITNYADSVKGRFTISRDNAKNTVYLQMNSLKPDATAVYYCAADEYAQRDLGYWGQGPQVTVSS | low polyreactivity
QVQHEESGGGIVQAGGSLRLSSAASGRTFKYYDMGWFRQALGKERELVATISSSDSTNYADSVKGRFTISRDNAKNTVYLQLNSLKPEDTAVYYCNADFKLIYVFDYWGQGSQVTVSS | high polyreactivity
QVQHEESGGGLFQAGGSLRLICAASGSIFDYYAMGWYRQAPGKERELVSTYYADSVKVRFTISRDNAKNTVYLQLNSLKPEDTAVYFCAKDRGTTGIPDGPAASLYGYVYWGQGTQVTVSS | low polyreactivity
QVQHEESGGGLVQAGGSLRLSCAASGLILFYNDMGWYRQAPGNERELVSVITSGGRTYYADSVKGRFTISRDIAKNTVYLQMNSLKPEDTAVYYCAATYGHPTTYCEGWRYGYWGQGTQVTVSS | low polyreactivity
